# Source: the supplement of paper PMC12667976
# ± gives the standard error.
# B1: library; numbered along this chain (parent)
# chain: MATDAALRRLLRLHRTEIAVAVDSAFPLLHALADHDVVPEDKFQETLHLKEKEGCPQAFHALLSWLLTQDSTAILDFWRVLFKDYNLERYGRLQPILDSFPKDVDLSQPRKGRKPPAVPKALVPPPRLPTKRKASEEARAAAPAALTPRGTASPGSQLKAKPPKKPESSAEQQRLPLGNGIQTMSASVQRAVAMSSGDVPGARGAVEGILIQQVFESGGSKKCIQVGGEFYTPSKFEDSGSGKNKARSSSGPKPLVRAKGAQGAAPGGGEARLGQQGSVPAPLALPSDPQLHQKNEDECAVCRDGGELICCDGCPRAFHLACLSPPLREIPSGTWRCSSCLQATVQEVQPRAEEPRPQEPPVETPLPPGLRSAGEEVRGPPGEPLAGMDTTLVYKHLPAPPSAAPLPGLDSSALHPLLCVGPEGQQNLAPGARCGVCGDGTDVLRCTHCAAAFHWRCHFPAGTSRPGTGLRCRSCSGDVTPAPVEGVLAPSPARLAPGPAKDDTASHEPALHRDDLESLLSEHTFDGILQWAIQSMARPAAPFPS
# Variants of: B1
# Experiment: AIRE transcriptional activation functional score (insulin promoter-GFP; nonsense median 0, synonymous median 1) (normalised score); higher = higher AIRE activity (more reporter activation)
# Conditions: with insulin promoter-GFP reporter in HEK293
# Procedure: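 Deep mutational scan of full-length human AIRE (codon-optimized cDNA, DT-POPCode NNN libraries over three regions) integrated at a Bxb1 landing pad in HEK293 cells carrying an insulin core promoter-GFP reporter at a Flp-In site. Cells were sorted for the top 10% GFP about 14 days after transfection. Variant frequency log-ratios (select vs non-select, TileSeq) were rescaled so that the nonsense median is 0 and the synonymous median is 1, then averaged over biological replicates.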
row,Variant,AIRE transcriptional activation functional score
1,H454C,0.499 ± 0.32
2,G498M,1.24 ± 0.071
3,Q275V,1.01 ± 0.2
4,I181Y,1.13 ± 0.46
5,T72V,1.28 ± 0.59
6,T504Y,1.77 ± 0.32
7,S412M,1.3 ± 0.067
8,G251E,1.44 ± 0.14
9,G251Y,1.42 ± 0.24
10,G251L,1.21 ± 0.22
11,A121L,1.09 ± 0.22
12,S220I,0.449 ± 0.49
13,S220M,1.16 ± 0.036
14,S220A,0.262 ± 0.063
15,S185V,0.26 ± 0.26
16,F26T,0.422 ± 0.98
17,A317H,1.06 ± 0.29
18,M388C,0.979 ± 0.082
19,N244F,1.08 ± 0.084
20,N244D,1.1 ± 0.091
21,N244S,1.3 ± 0.19

row,Variant,AIRE transcriptional activation functional score
1,R110L,1.44 ± 0.48
2,S545T,0.998 ± 0.12
3,V279D,-0.0439 ± 0.22
4,V279N,0.603 ± 0.33
5,F43Y,0.108 ± 0.11
6,L392K,1.14 ± 0.08
7,R316S,1.19 ± 0.22
8,R316C,1.22 ± 0.21
9,P116Q,1.41 ± 0.49
10,P116I,1.36 ± 0.24
11,G382T,0.841 ± 0.25
12,P125R,0.79 ± 0.34
13,P126F,0.304 ± 0.22
14,V301S,1 ± 0.43
15,Q213A,0.437 ± 0.074
16,A31W,-0.0372 ± 0.065
17,T524S,1.61 ± 0.24
18,T524P,0.528 ± 0.27
19,T524Y,1.4 ± 0.066
20,R12Q,-1.11 ± 0.89
21,R113K,1.18 ± 0.31

row,Variant,AIRE transcriptional activation functional score
1,E329R,0.935 ± 0.41
2,L28T,0.6 ± 0.27
3,Q346C,0.884 ± 0.091
4,I330K,0.557 ± 0.054
5,D4C,0.509 ± 0.18
6,D4I,0.179 ± 1
7,A451K,0.893 ± 0.1
8,A500H,1.22 ± 0.054
9,A500F,0.977 ± 0.19
10,V393L,1.2 ± 0.14
11,A510F,0.578 ± 0.11
12,A510E,1.33 ± 0.12
13,A510R,0.323 ± 0.16
14,P325I,1.07 ± 0.24
15,P325W,0.913 ± 0.05
16,L291E,0.759 ± 0.11
17,L291P,1.26 ± 0.12
18,D514H,0.52 ± 0.14
19,R247N,0.919 ± 0.15
20,R247S,0.966 ± 0.39
21,R351A,1.34 ± 0.32

row,Variant,AIRE transcriptional activation functional score
1,W65H,0.542 ± 0.72
2,D34P,0.782 ± 0.41
3,D34A,-0.1 ± 0.32
4,P460G,0.909 ± 0.31
5,P365R,1.28 ± 0.21
6,A264T,1.22 ± 0.16
7,A264R,1.05 ± 0.3
8,T390I,0.876 ± 0.28
9,A25I,0.925 ± 0.46
10,L13G,-0.0939 ± 0.53
11,L13A,0.273 ± 0.21
12,K253E,0.587 ± 0.27
13,E363Y,1.28 ± 0.093
14,E363P,0.843 ± 0.19
15,R79G,0.275 ± 0.28
16,P422W,1.69 ± 0.047
17,S521L,0.969 ± 0.066
18,S402M,0.776 ± 0.079
19,Q342D,0.916 ± 0.08
20,Q342A,0.362 ± 0.25
21,Q293K,1.16 ± 0.12
